{"source": "patent US6294648A", "about": "“Protein having proteinase inhibitor activity” (Bayer Corporation, priority 1999, dated 2001)", "origin": "cited, not measured here", "molecules": {"B1": {"name": "STI: Kunitz family inhibitor of trypsin from soybean (protein, UniProt P01070 25-205, looked up)", "Trypsin inhibitor A": "DFVLDNEGNPLENGGTYYILSDITAFGGIRAAPTGNERCPLTVVQSRNELDKGIGTIISSPYRIRFIAEGHPLSLKFDSFAVIMLCVGIPTEWSVVEDLPEGPAVKIGENKDAMDGWFRLERVSDDEFNNYKLVFCPQQAEDDKCGDIGISIDHDDGTRRLVVSKNKPLVVQFQKLDKESL"}, "B2": {"name": "Monocyte/neutrophil elastase inhibitor: a serpin family inhibitor (protein, UniProt P30740 1-379, looked up)", "Leukocyte elastase inhibitor": "MEQLSSANTRFALDLFLALSENNPAGNIFISPFSISSAMAMVFLGTRGNTAAQLSKTFHFNTVEEVHSRFQSLNADINKRGASYILKLANRLYGEKTYNFLPEFLVSTQKTYGADLASVDFQHASEDARKTINQWVKGQTEGKIPELLASGMVDNMTKLVLVNAIYFKGNWKDKFMKEATTNAPFRLNKKDRKTVKMMYQKKKFAYGYIEDLKCRVLELPYQGEELSMVILLPDDIEDESTGLKKIEEQLTLEKLHEWTKPENLDFIEVNVSLPRFKLEESYTLNSDLARLGVQDLFNSSKADLSGMSGARDIFISKIVHKSFVEVNEEGTEAAAATAGIATFCMLMPEENFTADHPFLFFIRHNSSGSILFLGRFSSP"}, "B3": {"name": "Eglin C: member of the potato inhibitor 1 family from leech Hirudo medicinalis (protein, UniProt P01051 1-70, looked up)", "Eglin C": "TEFGSELKSFPEVVGKTVDQAREYFTLHYPQYDVYFLPEGSPVTLDLRYNRVRVFYNPGTNVVNHVPHVG"}, "B4": {"name": "placental bikunin: Kunitz family inhibitor; potent inhibitor of plasmin (protein, UniProt O43291 28-252, looked up)", "Kunitz-type protease …": "ADRERSIHDFCLVSKVVGRCRASMPRWWYNVTDGSCQLFVYGGCDGNSNNYLTKEECLKKCATVTENATGDLATSRNAADSSVPSAPRRQDSEDHSSDMFNYEEYCTANAVTGPCRASFPRWYFDVERNSCNNFIYGGCRGNKNSYRSEEACMLRCFRQQENPPLPLGSKVVVLAGLFVMVLILFLGASMVYLIRVARRNQERALRTVWSSGDDKEQLVKNTYVL"}, "B5": {"name": "Antileukoproteinase (SLPI): member of the mucous proteinase inhibitor family (protein, UniProt P03973 26-132, looked up)", "Antileukoproteinase": "SGKSFKAGVCPPKKSAQCLRYKKPECQSDWQCPGKKRCCPDTCGIKCLDPVDTPNPTRRKPGKCPVTYGQCLMLNPPNFCEMDGQCKRDLKCCMGMCGKSCVSPVKA"}, "B6": {"name": "Alpha-1-antichymotrypsin: serpin family proteinase inhibitor (protein, UniProt P01011 24-423, looked up)", "Alpha-1-antichymotrypsin": "HPNSPLDEENLTQENQDRGTHVDLGLASANVDFAFSLYKQLVLKAPDKNVIFSPLSISTALAFLSLGAHNTTLTEILKGLKFNLTETSEAEIHQSFQHLLRTLNQSSDELQLSMGNAMFVKEQLSLLDRFTEDAKRLYGSEAFATDFQDSAAAKKLINDYVKNGTRGKITDLIKDLDSQTMMVLVNYIFFKAKWEMPFDPQDTHQSRFYLSKKKWVMVPMMSLHHLTIPYFRDEELSCTVVELKYTGNASALFILPDQDKMEEVEAMLLPETLKRWRDSLEFREIGELYLPKFSISRDYNLNDILLQLGIEEAFTSKADLSGITGARNLAVSQVVHKAVLDVFEEGTEASAATAVKITLLSALVETRTIVRFNRPFLMIIVPTDTQNIFFMSKVTNPKQA"}}, "key": {"trypsin": {"target": "T1, trypsin (Bos taurus, UniProt P00760)", "T1 construct": "gene PRSS1", "T1 sequence (P00760 24-246)": "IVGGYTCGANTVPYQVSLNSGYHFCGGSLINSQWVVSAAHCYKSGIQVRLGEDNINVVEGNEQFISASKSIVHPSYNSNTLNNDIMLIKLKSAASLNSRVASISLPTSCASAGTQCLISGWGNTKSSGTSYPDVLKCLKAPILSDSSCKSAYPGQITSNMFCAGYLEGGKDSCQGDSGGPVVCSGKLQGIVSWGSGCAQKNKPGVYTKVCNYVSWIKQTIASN"}, "[1]": {"tested_on": "neutrophil-induced ECM solubilization"}, "leukocyte elastase": {"target": "T2, leukocyte elastase (Homo sapiens, UniProt P08246)", "T2 sequence (P08246 30-267)": "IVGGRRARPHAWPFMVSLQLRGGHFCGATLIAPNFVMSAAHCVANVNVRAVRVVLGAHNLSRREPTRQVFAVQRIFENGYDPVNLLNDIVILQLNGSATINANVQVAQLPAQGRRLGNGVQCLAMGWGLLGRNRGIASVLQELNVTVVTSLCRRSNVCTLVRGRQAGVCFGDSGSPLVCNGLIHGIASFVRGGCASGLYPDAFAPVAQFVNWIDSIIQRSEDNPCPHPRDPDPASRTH"}, "proteinase 3": {"target": "T3, proteinase 3 (Homo sapiens, UniProt P24158)", "T3 sequence (P24158 28-256)": "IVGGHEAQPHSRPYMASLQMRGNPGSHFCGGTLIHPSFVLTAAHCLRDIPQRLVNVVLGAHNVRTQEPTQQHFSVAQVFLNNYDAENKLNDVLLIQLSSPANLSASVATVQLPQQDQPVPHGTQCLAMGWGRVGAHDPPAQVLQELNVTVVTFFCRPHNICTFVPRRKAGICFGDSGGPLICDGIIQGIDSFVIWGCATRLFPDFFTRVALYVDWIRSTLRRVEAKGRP"}, "[2]": {"tested_on": "leukocyte elastase-induced emphysema", "conditions": "hamsters"}, "cathepsin G": {"target": "T4, cathepsin G (Homo sapiens, UniProt P08311)", "T4 sequence (P08311 21-255)": "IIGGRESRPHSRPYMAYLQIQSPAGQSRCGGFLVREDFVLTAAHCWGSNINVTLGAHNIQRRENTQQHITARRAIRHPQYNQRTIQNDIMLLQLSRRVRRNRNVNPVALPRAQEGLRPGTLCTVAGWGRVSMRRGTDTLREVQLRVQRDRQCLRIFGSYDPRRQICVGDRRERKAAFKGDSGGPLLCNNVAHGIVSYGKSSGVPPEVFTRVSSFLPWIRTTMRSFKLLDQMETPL"}, "plasmin": {"target": "plasmin (Homo sapiens, UniProt P00747)", "sequence (P00747 581-810 limits assumed, species assumed)": "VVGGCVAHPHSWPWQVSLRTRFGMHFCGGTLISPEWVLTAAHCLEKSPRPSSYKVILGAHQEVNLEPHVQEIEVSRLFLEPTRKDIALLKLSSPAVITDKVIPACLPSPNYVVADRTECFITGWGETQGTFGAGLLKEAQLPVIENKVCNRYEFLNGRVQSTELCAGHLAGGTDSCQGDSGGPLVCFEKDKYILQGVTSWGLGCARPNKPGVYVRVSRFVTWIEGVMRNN", "sequence (P00747 97-580 partner limits assumed, species assumed)": "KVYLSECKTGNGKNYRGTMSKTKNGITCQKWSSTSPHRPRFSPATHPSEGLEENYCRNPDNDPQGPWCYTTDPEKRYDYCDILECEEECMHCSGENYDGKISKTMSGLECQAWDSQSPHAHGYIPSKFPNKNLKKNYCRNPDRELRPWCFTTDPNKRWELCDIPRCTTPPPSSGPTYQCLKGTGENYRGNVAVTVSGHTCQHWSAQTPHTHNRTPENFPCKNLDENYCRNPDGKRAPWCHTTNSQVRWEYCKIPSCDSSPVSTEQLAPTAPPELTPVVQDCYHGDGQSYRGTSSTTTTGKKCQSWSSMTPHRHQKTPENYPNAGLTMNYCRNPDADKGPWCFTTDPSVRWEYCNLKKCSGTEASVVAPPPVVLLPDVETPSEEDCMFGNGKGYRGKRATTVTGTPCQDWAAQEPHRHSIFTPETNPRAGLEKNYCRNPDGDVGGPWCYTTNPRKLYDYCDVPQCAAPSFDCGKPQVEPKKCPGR"}}, "note": "Like-named read-outs stand apart in the source and are kept apart here."}
{"molecule": "B1", "values": [{"measurement": "inhibition of chymotrypsin, in words", "setting": "chymotrypsin", "value": "significantly weaker inhibitor"}, {"measurement": "Ki", "setting": "chymotrypsin; read-out: Ki(1), chymotrypsin", "value": 1000, "unit": "nM"}, {"measurement": "Ki", "setting": "chymotrypsin; read-out: Ki(2), chymotrypsin", "value": 300, "unit": "nM"}, {"measurement": "inhibition of trypsin, in words", "setting": "trypsin", "value": "potent"}, {"measurement": "ET-1 degradation", "setting": "activated neutrophils", "value": "abolishes ET-1 degradation almost completely"}, {"measurement": "inhibition of neutrophil-induced ECM solubilization", "setting": "[1]", "value": "completely or nearly completely inhibit"}]}
{"molecule": "B2", "values": [{"measurement": "inhibition of leukocyte elastase, in words", "setting": "leukocyte elastase", "value": "inhibits"}, {"measurement": "inhibition of proteinase 3, in words", "setting": "proteinase 3", "value": "inhibits"}]}
{"molecule": "B3", "values": [{"measurement": "protection against leukocyte elastase-induced emphysema / pulmonary hemorrhage", "setting": "[2]", "value": "completely protected"}, {"measurement": "Ki", "setting": "leukocyte elastase; read-out: Ki, leukocyte elastase", "value": 0.37, "unit": "nM"}, {"measurement": "inhibition of proteinase 3, in words", "setting": "proteinase 3", "value": "only weakly inhibits"}, {"measurement": "Ki", "setting": "cathepsin G", "value": "~0.1", "unit": "nM"}]}
{"molecule": "B4", "values": [{"measurement": "Ki", "setting": "chymotrypsin; read-out: Ki, chymotrypsin", "value": 0.48, "unit": "nM"}, {"measurement": "Ki", "setting": "trypsin", "value": 0.01, "unit": "nM"}, {"measurement": "inhibition of plasmin, in words", "setting": "plasmin", "value": "potent inhibitor"}, {"measurement": "inhibition of leukocyte elastase, in words", "setting": "leukocyte elastase", "value": "not leukocyte elastase"}]}
{"molecule": "B5", "values": [{"measurement": "Ki", "setting": "leukocyte elastase; read-out: Ki, elastase", "value": 0.6, "unit": "nM"}, {"measurement": "inhibition of proteinase 3, in words", "setting": "proteinase 3", "value": "not proteinase 3"}, {"measurement": "inhibition of cathepsin G, in words", "setting": "cathepsin G", "value": "not"}]}
{"molecule": "B6", "values": [{"measurement": "inhibition of proteinase 3, in words", "setting": "proteinase 3", "value": "not proteinase 3"}, {"measurement": "inhibition of cathepsin G, in words", "setting": "cathepsin G", "value": "inhibits"}]}
